Source: patent publication US20030143191A1, “Chemokine beta-1 fusion proteins” (priority 2001, published 2003)

What was measured:
CCR1 = biological target: T1, CCR1 (Homo sapiens, UniProt P32246); conditions: Detheux et al., J. Exp. Med. 192:1501-1508 (2000); cited from earlier work
T1 sequence (P32246 1-355): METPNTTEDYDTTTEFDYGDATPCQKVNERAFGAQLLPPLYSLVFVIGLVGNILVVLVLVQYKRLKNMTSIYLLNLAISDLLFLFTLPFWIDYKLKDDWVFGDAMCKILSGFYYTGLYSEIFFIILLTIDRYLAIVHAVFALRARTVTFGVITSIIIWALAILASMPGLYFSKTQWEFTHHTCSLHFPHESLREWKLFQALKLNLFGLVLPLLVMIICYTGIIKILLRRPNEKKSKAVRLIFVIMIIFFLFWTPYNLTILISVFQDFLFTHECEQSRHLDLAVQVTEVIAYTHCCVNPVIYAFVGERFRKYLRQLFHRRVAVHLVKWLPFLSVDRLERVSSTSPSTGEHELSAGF

monocytes = conditions: cited from earlier work
human monocytes = test: Cytokine release from human monocytes (ELISA of culture supernatants); type: cell-based; conditions: human monocytes (1×10^6), 1 day incubation
Protocol: To evaluate the in vitro activity of Ckb1(G-28-N93) and Ckb1(G-28-N93) fused to human serum albumin, proteins produced by these constructs were incubated with human monocytes (1×10^6) for 1 day. Culture supernatants were collected and analyzed by ELISA for cytokine content.

[1] = test system: Jaks-STATS signal transduction pathway; test: GAS-SEAP/U937 reporter assay for myeloid activity; type: cell-based; conditions: GAS-SEAP/U937 cells; 100 Unit/ml; positive control wells; 48 to 72 hr
Protocol: The following protocol is used to assess myeloid activity of a fusion protein (e.g. albumin fusion protein) of the present invention by determining whether the fusion protein proliferates and/or differentiates myeloid cells. Myeloid cell activity is assessed using the GAS/SEAP/Neo construct produced in Example 29. Thus, factors that increase SEAP activity indicate the ability to activate the Jaks-STATS signal transduction pathway. The myeloid cell used in this assay is U937, a pre-monocyte cell line, although TF-1, HL60, or KG1 can be used.
To transiently transfect U937 cells with the GAS/SEAP/Neo construct produced in Example 29, a DEAE-Dextran method (Kharbanda et. al., 1994, Cell Growth & Differentiation, 5:259-265) is used. First, harvest 2×10^7 U937 cells and wash with PBS. The U937 cells are usually grown in RPMI 1640 medium containing 10% heat-inactivated fetal bovine serum (FBS) supplemented with 100 units/ml penicillin and […] streptomycin.
Next, suspend the cells in 1 ml of 20 mM Tris-HCl (pH 7.4) buffer containing 0.5 mg/ml DEAE-Dextran, 8 ug GAS-SEAP2 plasmid DNA, 140 mM NaCl, 5 mM KCl, 375 uM Na2HPO4.7H2O, 1 mM MgCl2, and 675 uM CaCl2. Incubate at 37 degrees C. for 45 min.
Wash the cells with RPMI 1640 medium containing 10% FBS and then resuspend in 10 ml complete medium and incubate at 37 degree C. for 36 hr. […]

[2] = test system: Jaks-STATS signal transduction pathway; test: Jurkat:GAS-SEAP reporter assay for T-cell activity; type: cell-based; conditions: Jurkat:GAS-SEAP cells; 100 Unit/ml; positive control wells; 48 hrs
Protocol: The following protocol is used to assess T-cell activity by identifying factors, and determining whether a fusion protein (e.g. albumin fusion protein) of the invention proliferates and/or differentiates T-cells. T-cell activity is assessed using the GAS/SEAP/Neo construct produced in Example 29. Thus, factors that increase SEAP activity indicate the ability to activate the Jaks-STATS signal transduction pathway. The T-cell used in this assay is Jurkat T-cells (ATCC Accession No. TIB-152), although Molt-3 cells (ATCC Accession No. CRL-1552) and Molt-4 cells (ATCC Accession No. CRL-1582) cells can also be used.
Jurkat T-cells are lymphoblastic CD4^+ Th1 helper cells. In order to generate stable cell lines, approximately 2 million Jurkat cells are transfected with the GAS-SEAP/neo vector using DMRIE-C (Life Technologies)(transfection procedure described below). The transfected cells are seeded to a density of approximately 20,000 cells per well and transfectants resistant to 1 mg/ml genticin selected. Resistant colonies are expanded and then tested for their response to increasing concentrations of interferon gamma.
Specifically, the following protocol will yield sufficient cells for 75 wells containing 200 ul of cells. Thus, it is either scaled up, or performed in multiple to generate sufficient cells for multiple 96 well plates. […]

CCR5 = CCR5 (Homo sapiens, UniProt P51681); conditions: Detheux et al., J. Exp. Med. 192:1501-1508 (2000); cited from earlier work
Chain of CCR5 (P51681 whole entry, species assumed): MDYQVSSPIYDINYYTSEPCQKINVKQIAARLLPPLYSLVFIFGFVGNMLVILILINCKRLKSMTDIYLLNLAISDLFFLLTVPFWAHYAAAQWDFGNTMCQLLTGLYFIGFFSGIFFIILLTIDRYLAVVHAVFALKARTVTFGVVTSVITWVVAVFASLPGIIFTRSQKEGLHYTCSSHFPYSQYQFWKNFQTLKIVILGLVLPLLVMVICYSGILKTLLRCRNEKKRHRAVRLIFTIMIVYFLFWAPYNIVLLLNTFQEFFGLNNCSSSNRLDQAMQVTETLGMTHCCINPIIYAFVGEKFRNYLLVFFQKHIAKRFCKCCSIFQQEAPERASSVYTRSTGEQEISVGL

CCR3 = biological target: T2, CCR3 (Homo sapiens, UniProt P51677); conditions: Detheux et al., J. Exp. Med. 192:1501-1508 (2000); cited from earlier work
T2 sequence (P51677 1-355): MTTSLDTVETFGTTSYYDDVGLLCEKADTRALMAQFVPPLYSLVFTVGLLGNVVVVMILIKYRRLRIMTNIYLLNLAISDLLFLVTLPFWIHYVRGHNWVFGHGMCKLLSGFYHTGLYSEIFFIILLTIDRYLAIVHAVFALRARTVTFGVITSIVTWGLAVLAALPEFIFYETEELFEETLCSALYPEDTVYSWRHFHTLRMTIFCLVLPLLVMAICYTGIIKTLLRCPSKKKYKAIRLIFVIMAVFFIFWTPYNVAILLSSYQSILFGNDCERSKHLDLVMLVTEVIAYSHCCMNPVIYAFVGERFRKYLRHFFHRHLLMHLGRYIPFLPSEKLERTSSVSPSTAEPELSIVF

B1: Ckb1: human chemokine beta 1; mature form of 74 amino acids, amino acids 1-74 of SEQ ID NO:2 (protein, listed as Homo Sapiens)
chain: MKISVAAIPFFLLITIALGTKTESSSRGPYHPSECCFTYTTYKIPRQRIMDYYETNSQCSKPGIVFITKRGHSV
For B1, the “agonism / activation of CCR1” value (CCR1) is given as “activates CCR1 at high (supraphysiological) concentrations” and the activation of monocytes (monocytes) is given as “weak activator”.

B2: Ckb1(G28-N93): Ckb1 polypeptide, residues G28-N93, not fused (protein)
chain: GPYHPSECCFTYTTYKIPRQRIMDYYETNSQCSKPGIVFITKRGHSVCTNPSDKWVQDYIKDMKEN
In the case of B2, the “release of IL-1β” value (human monocytes) is reported as “induced release”, the “release of IL-6” value (human monocytes) is reported as “induced release” and the “release of TNF-alpha” value (human monocytes) is reported as “induced release”.

B3: IFN-g: IFN family ligand; positive control known to activate Jurkat T cells and U937 cells (protein, UniProt P01579 24-161, looked up)
Interferon gamma: QDPYVKEAENLKKYFNAGHSDVADNGTLFLGILKNWKEESDRKIMQSQIVSFYFKLFKNFKDDQSIQKSVETIKEDMNVKFFNSNKKKRDDFEKLTNYSVTDLNVQRKAIHELIQVMAELSPAAKTGKRKRSQMLFRG
With B3 the “induction (SEAP reporter activity)” value [1] was “Over 30 fold” and the “induction (SEAP reporter activity)” value [2] was “Over 30 fold”.

B4: Ckb1 [9-74]: N-terminal deletion variant of Ckb1 consisting of amino acids 9-74 of SEQ ID NO:2 (Detheux et al.) (protein, listed as Homo Sapiens)
chain: PFFLLITIALGTKTESSSRGPYHPSECCFTYTTYKIPRQRIMDYYETNSQCSKPGIVFITKRGHSV
In the case of B4, the “agonism of CCR5” value (CCR5) is given as “potent agonist”, the “agonism of CCR3” value (CCR3) is given as “potent agonist” and the “agonism / activation of CCR1” value (CCR1) is given as “potent agonist”.
